IntAct's records for PubMed 26224785

B1: Microsomal triglyceride transfer protein large subunit (Homo sapiens), P55157 (parent)
chain: MILLAVLFLCFISSYSASVKGHTTGLSLNNDRLYKLTYSTEVLLDRGKGKLQDSVGYRISSNVDVALLWRNPDGDDDQLIQITMKDVNVENVNQQRGEKSIFKGKSPSKIMGKENLEALQRPTLLHLIHGKVKEFYSYQNEAVAIENIKRGLASLFQTQLSSGTTNEVDISGNCKVTYQAHQDKVIKIKALDSCKIARSGFTTPNQVLGVSSKATSVTTYKIEDSFVIAVLAEETHNFGLNFLQTIKGKIVSKQKLELKTTEAGPRLMSGKQAAAIIKAVDSKYTAIPIVGQVFQSHCKGCPSLSELWRSTRKYLQPDNLSKAEAVRNFLAFIQHLRTAKKEEILQILKMENKEVLPQLVDAVTSAQTSDSLEAILDFLDFKSDSSIILQERFLYACGFASHPNEELLRALISKFKGSIGSSDIRETVMIITGTLVRKLCQNEGCKLKAVVEAKKLILGGLEKAEKKEDTRMYLLALKNALLPEGIPSLLKYAEAGEGPISHLATTALQRYDLPFITDEVKKTLNRIYHQNRKVHEKTVRTAAAAIILNNNPSYMDVKNILLSIGELPQEMNKYMLAIVQDILRFEMPASKIVRRVLKEMVAHNYDRFSRSGSSSAYTGYIERSPRSASTYSLDILYSGSGILRRSNLNIFQYIGKAGLHGSQVVIEAQGLEALIAATPDEGEENLDSYAGMSAILFDVQLRPVTFFNGYSDLMSKMLSASGDPISVVKGLILLIDHSQELQLQSGLKANIEVQGGLAIDISGAMEFSLWYRESKTRVKNRVTVVITTDITVDSSFVKAGLETSTETEAGLEFISTVQFSQYPFLVCMQMDKDEAPFRQFEKKYERLSTGRGYVSQKRKESVLAGCEFPLHQENSEMCKVVFAPQPDSTSSGWF
partner: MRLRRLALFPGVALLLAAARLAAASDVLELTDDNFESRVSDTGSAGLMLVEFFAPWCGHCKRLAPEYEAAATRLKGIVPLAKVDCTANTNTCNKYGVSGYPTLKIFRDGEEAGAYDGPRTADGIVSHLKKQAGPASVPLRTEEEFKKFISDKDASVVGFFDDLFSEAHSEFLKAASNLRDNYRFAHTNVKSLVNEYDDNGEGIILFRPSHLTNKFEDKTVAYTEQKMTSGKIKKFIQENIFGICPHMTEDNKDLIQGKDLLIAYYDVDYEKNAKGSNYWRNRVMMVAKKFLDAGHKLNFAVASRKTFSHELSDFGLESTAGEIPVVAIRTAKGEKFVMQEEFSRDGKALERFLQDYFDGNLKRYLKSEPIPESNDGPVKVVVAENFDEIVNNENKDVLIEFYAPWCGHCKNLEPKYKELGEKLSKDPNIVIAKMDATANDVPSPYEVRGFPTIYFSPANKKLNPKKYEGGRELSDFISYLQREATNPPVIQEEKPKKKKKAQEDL
B2: Microsomal triglyceride transfer protein large subunit (Homo sapiens), P55157 (parent)
chain: B1 chain

Variants of: B1
Details: with pdia3_chlae PDIA3, Q4VIT4

With K187R as the variant, how does the “effect of a mutation on the interaction” value read?
Its value is “with no effect”.

K187L was tested. Which “effect of a mutation on the interaction” value did it give?
Its value is “decreasing interaction strength”.

For D169E, which “effect of a mutation on the interaction” value is on record?
Its value is “with no effect”.

With D169V as the variant, how does the “effect of a mutation on the interaction” value read?
Its value is “disrupting interaction strength”.

How did the “effect of a mutation on the interaction” value turn out when K189R was run?
The value was “with no effect”.

How did the “effect of a mutation on the interaction” value turn out when K189L was run?
The value was “decreasing interaction strength”.

Variants of: B1
Details: with pdia3_chlae PDIA3, Q4VIT4
Remark: another data set of the same source

For K187L, which “effect of a mutation on the interaction” value is on record?
Its value is “with no effect”.

For D169V, which “effect of a mutation on the interaction” value is on record?
The value was “with no effect”.

How did the “effect of a mutation on the interaction” value turn out when K189L was run?
The value was “with no effect”.

Variants of: B2
Details: with apob_human APOB

Which “effect of a mutation on the interaction” value does the source give for K189L here?
The value was “with no effect”.

Which “effect of a mutation on the interaction” value does the source give for K189R here?
Its value is “with no effect”.

D169V was tested. Which “effect of a mutation on the interaction” value did it give?
Its value is “with no effect”.

How did the “effect of a mutation on the interaction” value turn out when D169E was run?
The value was “with no effect”.

Which “effect of a mutation on the interaction” value does the source give for K187R here?
Its value is “with no effect”.

For K187L, which “effect of a mutation on the interaction” value is on record?
Its value is “with no effect”.
